Several values for one entry are separate records, joined by “and”; a condition that tells them apart may be missing. Equal entries are not always repeated.
Target: HSP90N (human HSP90 isoform that lacks the N-terminal ATPase domain) (human) (UniProt P07900)
Assay: AUC; sedimentation velocity of fractions from the S-300 column, 0.3 mg/ml in 100 mM Tris-HCl, 45,000 rpm, 20°C, c(s) distribution (SEDFIT)

- stoichiometry N: 2 and 4 and 6
Substance: HSP90N (human HSP90 isoform that lacks the N-terminal ATPase domain) (from UniProt P07900-1 224-732) (natural protein)
